We go through one molecule from article PMC10187921, “A fully human neutralizing monoclonal antibody targeting a highly conserved epitope of the human cytomegalovirus glycoprotein B” (PLOS ONE, 2023).

Experiment [1] deals with T1, Human cytomegalovirus glycoprotein B (strain AD169) on infectious virions (Human cytomegalovirus, strain AD169, UniProt P06473).
T1 construct: on infectious virions (not on cells): native glycoprotein B of human cytomegalovirus strain AD169 in the viral envelope; UniProtKB P06473 is printed for strain AD169 gB; also called gB; HCMV virions; source: HCMV strain AD169 virions, crude virus purification sample, purified via ultracentrifugation
T1 sequence (P06473 32-906): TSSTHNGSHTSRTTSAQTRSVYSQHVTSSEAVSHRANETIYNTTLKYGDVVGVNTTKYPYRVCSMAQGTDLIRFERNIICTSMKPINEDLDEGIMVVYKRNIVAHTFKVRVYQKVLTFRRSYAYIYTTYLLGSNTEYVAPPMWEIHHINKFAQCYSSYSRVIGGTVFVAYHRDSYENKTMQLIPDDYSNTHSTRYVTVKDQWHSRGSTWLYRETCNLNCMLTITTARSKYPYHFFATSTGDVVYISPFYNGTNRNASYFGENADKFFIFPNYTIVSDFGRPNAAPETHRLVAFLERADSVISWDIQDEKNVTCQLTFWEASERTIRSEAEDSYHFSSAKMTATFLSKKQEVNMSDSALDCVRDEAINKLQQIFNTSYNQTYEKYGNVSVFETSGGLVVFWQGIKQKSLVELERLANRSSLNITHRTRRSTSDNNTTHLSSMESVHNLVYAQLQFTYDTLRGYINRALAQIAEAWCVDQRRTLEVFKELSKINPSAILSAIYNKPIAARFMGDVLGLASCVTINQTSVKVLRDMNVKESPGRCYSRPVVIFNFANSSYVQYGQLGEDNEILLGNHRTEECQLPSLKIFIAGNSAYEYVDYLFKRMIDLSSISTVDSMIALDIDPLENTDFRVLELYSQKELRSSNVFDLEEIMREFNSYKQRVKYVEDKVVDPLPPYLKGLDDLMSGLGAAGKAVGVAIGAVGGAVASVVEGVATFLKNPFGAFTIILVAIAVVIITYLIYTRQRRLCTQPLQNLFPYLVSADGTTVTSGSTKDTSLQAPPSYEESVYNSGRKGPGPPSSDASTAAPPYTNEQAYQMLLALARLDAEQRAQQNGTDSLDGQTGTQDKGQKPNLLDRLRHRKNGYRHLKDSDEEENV
Nature of the experiment: SPR; Biacore T200; infectious virions (strain AD169, 1.6 × 10^8 plaque-forming units/mL) trapped by captured MSL-109 (anti-gH/gL); EV2038 injected as analyte; 1:1 binding model. The following applies: one partner purified. In general terms: In SPR one partner is held on a chip, and binding of the other changes the refractive index at the surface.

Experiment [2] addresses glycoprotein B of eight Japanese clinical isolates (2009-889, I88-55, I144-44, H12-42, H12-43, H1-10, H1-15, MDU-1) (human cytomegalovirus).
Experiment [3] deals with T2, Recombinant AD-1 protein from HCMV gB (strain AD169, amino acids 541-658), fused with glutathione … (Human cytomegalovirus, strain AD169, UniProt P06473).
T2 construct: antigenic domain 1 (AD-1) of human cytomegalovirus glycoprotein B, strain AD169, amino acids 541-658, UniProtKB P06473; The printed size of 40.7 kDa fits the fusion with GST still on it; no cleavage is told; Vector pGEX4T; also called recombinant antigenic domain 1; source: E. coli BL21 (DE3), solubilized with 0.5% sarkosyl, purified (SDS-PAGE, electroelution, dialysis against PBS)
T2 sequence (P06473 541-658): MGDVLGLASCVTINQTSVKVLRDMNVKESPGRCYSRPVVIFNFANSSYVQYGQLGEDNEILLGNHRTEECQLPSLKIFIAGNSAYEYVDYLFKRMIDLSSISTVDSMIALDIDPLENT
Nature of the experiment: SPR; Biacore T200; EV2038 (0.33 μg/mL) captured by anti-IgG (Fc) antibody on a CM5 chip; recombinant AD-1 injected as analyte; 1:1 binding model. As to conditions: both partners purified.

The target of experiment [4] is glycoprotein B of 42 Japanese clinical isolates (39 tested in MRC-5, 24 in ARPE-19 cells) (human cytomegalovirus).
Experiment [5] addresses T1, Human cytomegalovirus glycoprotein B …. Briefly: cell-based or functional assay.

B1: EV2038 (IgG1 lambda), fully human neutralizing monoclonal antibody (antibody, V domains shown)
VH: QVQLQQWGAGLLKPSETLSLTCAVYGGSFSGYYWGWIRQPPGKGLEWIGEINHSGSANSNPSLKSRVTMSVDTSKNQFSLKVSSVTAADTAVYFCARVTRDLEWIPGDYYMDVWGKGTTVTVSS
VL: QSVLTQPPSASGTPGQRVSISCSGSLSNIGTNYVYWYQQLPGTAPKLLIFKNNQRPSGVPDRFSGSKSGTSASLAISGLRSEDEADYYCAAWDDSLNGYVFGTGTKVTVL
notes: heavy chain framework 1: only the Kabat CDRs are printed; heavy chain CDR1 (Kabat); heavy chain CDR2 (Kabat); heavy chain CDR3 (Kabat); constant region of human IgG1 heavy chain; light chain framework 1: only the Kabat CDRs are printed; light chain CDR1 (Kabat); light chain CDR2 (Kabat); light chain CDR3 (Kabat); constant region of a human lambda light chain; IgG1 lambda; the frameworks are not; …
The term Kd denotes the constant that tells how readily two partners part at equilibrium. By koff is commonly meant the rate constant with which the complex falls apart. As to B1, in experiment [1], the Kd worked out at 0.224 nM and the koff was found to be 0.00113 s⁻¹. Besides, in experiment [2], the IC50 of inhibition of viral cell-to-cell spread, focus expansion assay, eight clinical isolates in ARPE-19 cells was 1 to 3.1 µg/mL and the IC90 of inhibition of viral cell-to-cell spread, focus expansion assay, eight clinical isolates in ARPE-19 cells fell in the range of 13 to 19 µg/mL. In experiment [3], the dissociation constant Kd turned out to be 5.73 nM and the koff was found to be 0.000279 s⁻¹. In experiment [4], this molecule gave an IC50 of neutralisation of HCMV infection, plaque reduction assay, 24 clinical isolates in ARPE-19 cells of 0.013 to 0.105 µg/mL; an IC50 of neutralisation of HCMV infection, plaque reduction assay, 39 clinical isolates in MRC-5 cells of 0.013 to 0.103 µg/mL; an IC90 of neutralisation of HCMV infection, plaque reduction assay, 24 clinical isolates in ARPE-19 cells of 0.208 to 1.03 µg/mL; an IC90 of neutralisation of HCMV infection, plaque reduction assay, 39 clinical isolates in MRC-5 cells of 0.215 to 0.901 µg/mL. For the same molecule, in experiment [5], the “IC50 of neutralisation of HCMV infection (strain AD169) after two passages of virus grown with mAbs, preliminary study” value was 0.08 to 0.18 µg/mL and the “IC50 of neutralisation of HCMV infection (strain AD169) in MRC-5 cells, without anti-CMV agents” value was approximately 0.1 µg/mL.
